In patent US20150140001A1 (Scripps Research, published 2015):
Residue numbers refer to the chain shown, from its start.

T1: recombinant mouse clec14a CTLD Fc fusion protein (mCTLD-Fc) (mouse; human, UniProt Q8VCP9 31-172)
T1 construct: also called mouse CTLD-Fc; not shown: hinge and CH2-CH3 domain of human IgG1, encoded 3' of the cloning site of the modified pCEP4 vector
T1 sequence: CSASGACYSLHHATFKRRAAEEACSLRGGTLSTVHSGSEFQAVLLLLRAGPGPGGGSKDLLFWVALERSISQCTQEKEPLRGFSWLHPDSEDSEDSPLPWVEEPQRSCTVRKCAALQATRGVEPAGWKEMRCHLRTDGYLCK

T2: fusion protein comprising an amino acid fragment from 1st amino acid to 42nd amino acid in hCTLD (human, UniProt Q86T13 31-72)
T2 construct: also called N-terminal fragment of hCTLD-Fc (1-42); not shown: Fc
T2 chain: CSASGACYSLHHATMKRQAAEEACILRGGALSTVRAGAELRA

T3: recombinant human clec14a CTLD Fc fusion protein (hCTLD-Fc) (human, UniProt Q86T13 31-172)
T3 construct: also called human CTLD-Fc; wtCTLD-Fc; not shown: hinge and CH2-CH3 domain of human IgG1, encoded 3' of the cloning site of the modified pCEP4 vector
T3 sequence: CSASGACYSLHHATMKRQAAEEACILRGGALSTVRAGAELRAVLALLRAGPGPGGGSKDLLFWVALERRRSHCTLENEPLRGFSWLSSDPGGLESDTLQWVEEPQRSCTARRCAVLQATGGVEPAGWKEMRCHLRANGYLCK

B1: clec14a-CTLD IgG clone 1 (antibody, V domains shown)
VH: EVQLLESGGGLVQPGGSLRLSCAASGFTFSGYDMSWVRQAPGKGLEWVSGIYPDGGNTYYADSVKGRFTISRDNSKNTLYLQMNSLRAEDTAVYYCARGATWWVLGPFDYWGQGTLVTVSS
VL: QSVLTQPPSASGTPGQRVTISCTGSSSNIGNNSVTWYQQLPGTAPKLLIYADSHRPSGVPDRFSGSKSGTSASLAISGLRSEDEADYYCGAWDDSLSGYVFGGGTKLTVL
notes: scFv converted to IgG; Lambda light chain, detected with anti-human lambda antibody
B2: scFv clone 2 (phage-displayed) (scFv, V domains shown)
VH: EVQLLESGGGLVQPGGSLRLSCAASGFTFSSYDMSWVRQAPGKGLEWVSVISPDSSSTYYADSVKGRFTISRDNSKNTLHLQMNSLRAEDTAVYYCARHTGWQSRPHTYYDYGMDVWGQGTLVTVSS
VL: B1 VL with T23S, S33A, A51S, S53N, A91T, D94A
B3: scFv clone 1 (phage-displayed) (scFv, V domains shown)
VH: B1 VH
VL: B1 VL
B4: scFv clone 3 (phage-displayed) (scFv, V domains shown)
VH: EVQLLESGGGLVQPGGSLRLSCAASGFTFSDYYMSWVRQAPGKGLEWVSLISYDGGSTYYADSVKGRFTISRDNSKNTLYLQMNSLRAEDTAVYYCARSNDWFDYWGQGTLVTVSS
VL: B1 VL with T23S, N31S, S33N, T35Y, A51Y, H54Q, G98A
B5: clec14a-CTLD IgG clone 2 (antibody, V domains shown)
VH: B2 VH
VL: B1 VL with T23S, S33A, A51S, S53N, A91T, D94A
notes: Lambda light chain
B6: clec14a-CTLD IgG clone 3 (antibody, V domains shown)
VH: B4 VH
VL: B1 VL with T23S, N31S, S33N, T35Y, A51Y, H54Q, G98A
notes: Lambda light chain

Experiments:
[1] = molecular target: T1, recombinant mouse clec14a CTLD Fc …; test: ELISA, coated mCTLD-Fc (25 nM), 67 nM IgG
Method: (§1) 25 nM recombinant hCTLD-Fc, mCTLD-Fc, or Fc fragment of IgG1 in PBS was added to the 96-wells of a microtiter plate. After incubation overnight at 37° C., plates were washed three times with PBS containing 0.05% (v/v) Tween 20 (PBST), and incubated with 3% (w/v) BSA in PBST for 1 hr at 37° C. Plates were then incubated with 67 nM clec14a-CTLD IgG in PBST containing 3% (w/v) BSA for 3 hr at 37° C. Plates were washed twice with PBST and incubated with horseradish […] (HRP)-conjugated anti-human lambda light chain antibody (Bethyl Laboratories, Montgomery, Tex., USA) diluted 1:1000) in PBST containing 3% (w/v) BSA, for 1 hr at 37° C.

[2] = molecular target: T2, fusion protein comprising an amino acid …; test: epitope mapping ELISA, coated fragment-Fc 10 µg/ml, IgG 10 µg/ml
Method: Each of 10 μg/ml hCTLD-Fc, Fc, or N-terminal or C-terminal fragments of hCTLD-Fc in PBS was added to 96-well plates. Plates were incubated overnight at 37° C., washed three times with PBS containing 0.05% (v/v) Tween 20 (PBST), and incubated with 3% (w/v) BSA in PBST for 1 hr at 37° C. Plates were incubated with 10 μg/ml clec14a-CTLD IgG in PBST containing 3% (w/v) BSA for 2 hr at 37° C. Following two times washings with PBST, horseradish […] (HRP)-conjugated anti-human lambda light chain antibody (1:1000; Bethyl Laboratories, TX, USA) in PBST containing 3% (w/v) BSA was incubated for 1 hr at 37° C.
For fine mapping of epitope, specificity of clec14a-CTLD IgGs to Clec14awtCTLD and the fragments of hCTLD-Fc (FIG. 10a) were tested by ELISA.

[3] = molecular target: T1, recombinant mouse clec14a CTLD Fc …; test: phage enzyme immunoassay (phage ELISA) on mCTLD-Fc
Method: (§2) A human synthetic scFv antibody library was precleared of Fc binders and screened by alternative biopanning with recombinant hCTLD-Fc or mCTLD-Fc. b-d. Ninety-six phage clones (1-96) displaying scFv were randomly selected and the supernatants were analyzed by phage ELISA. Reactivity of the selected scFv clones to human and mouse CTLDs was assayed by measuring absorbance at 450 nm. Arrows indicate scFv clones reactive to hCTLD-Fc (▪, black) and mCTLD-Fc (▪, grey), and not reactive to Fc (□). BSA ( ) served as a background control.
(§3) Three rounds of biopanning were carried out with immunotubes (Immuno™ tube maxisorp, Nunc, Rochester, N.Y., USA) or magnetic beads (Dynabeads M-270 epoxy, Invitrogen) coated with 4 μg recombinant human (hCTLD-Fc) or mouse (mCTLD-Fc) fusion protein to select clones with cross-species reactivity, as described previously (Barbas C F. Phage display: a laboratory manual. Cold Spring Harbor, N.Y.: Cold Spring Harbor Laboratory Press; 2001; Vestweber D. Lymphocyte trafficking through blood and lymphatic vessels: more than just selectins, chemokines and integrins. European Journal of Immunology. 2003; 33(5):1361-4). Ninety-six phage clones were randomly selected from colonies grown on output plates and tested for reactivity to human and mouse CTLDs by phage enzyme immunoassay. DNA of the final scFv clones was sequenced and classified as four scFv clones identified having different complementarity determining region sequences.

[4] = molecular target: T3, recombinant human clec14a CTLD Fc …; test: phage enzyme immunoassay (phage ELISA) on hCTLD-Fc
Method: as §2
as §3, with “DNA of the final scFv clones was sequenced and classified as four scFv clones identified having different complementarity determining region sequences.” left out

[5] = molecular target: T3, recombinant human clec14a CTLD Fc …; test: ELISA, coated hCTLD-Fc (25 nM), 67 nM IgG
Method: as §1

Binder | binding result [1] | binding result [2] | binding result [3] | also measured
B1 | binds | binds |  | 
B2 |  |  | binds | 
B3 |  |  | binds | 
B4 |  |  | binds | binding result [4]: binds
B5 | binds | binds |  | 
B6 | binds |  |  | binding result [5]: binds
